# In article PMC7256200, “Identifying a Molecular Mechanism That Imparts Species-Specific Toxicity to YoeB Toxins” (Frontiers in Microbiology, 2020):
# B1: AtYoeB toxin (Atu2017) from Agrobacterium tumefaciens, GST-His tag removed (natural protein)
# chain: MKLVWTLSSWDDYEFWQRTDARMVEKINDLIRNAKRTPFAGLGKPEPLKGDMAGYWSRRITAEHRFVYRVSGSGSEQRLEVIQCRFHYQ
# notes: source: E. coli BL21 (DE3), purified (NiNTA, HRV3c PreScission cleavage, Superdex 75); not shown: GST, C-terminal, cleaved
# Target: the molecule itself
# Experiment: SEC-MALS
protein,measurement,value
B1,stoichiometry N,2
